Here are results for six variants from the supplement of paper PMC11908140.

B1: library; numbered along this chain (parent)
chain: MRKPRAAVGSGHRKQAASQEGRQKHAKNNSQAKPSACDGLARQPEEVVLQASVSSYHLFRDVAEVTAFRGSLLSWYDQEKRDLPWRRRAEDEMDLDRRAYAVWVSEVMLQQTQVATVINYYTGWMQKWPTLQDLASASLEEVNQLWAGLGYYSRGRRLQEGARKVVEELGGHMPRTAETLQQLLPGVGRYTAGAIASIAFGQATGVVDGNVARVLCRVRAIGADPSSTLVSQQLWGLAQQLVDPARPGDFNQAAMELGATVCTPQRPLCSQCPVESLCRARQRVEQEQLLASGSLSGSPDVEECAPNTGQCHLCLPPSEPWDQTLGVVNFPRKASRKPPREESSATCVLEQPGALGAQILLVQRPNSGLLAGLWEFPSVTWEPSEQLQRKALLQELQRWAGPLPATHLRHLGEVVHTFSHIKLTYQVYGLALEGQTPVTTVPPGARWLTQEEFHTAAVSTAMKKVFRVYQGQQPGTCMGSKRSQVSSPCSRKKPRMGQQVLDNFFRSHISTDAHSLNSAAQ

In this data set the parent is B1. The experiment in a line: 8OG:A repair function score (normalized; synonymous = 0, nonsense = -1) (normalized log-likelihood score); higher = more repair activity (WT-like). To be noted: with 8OG:A DNA repair reporter (GFP) in HEK-293 MUTYH KO cells. How it is done:
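Saturation mutagenesis (NNN codon scan) of the MUTYH cDNA (521-aa nuclear isoform NM_001048174.1 / NP_001041639), stably expressed under doxycycline induction in HEK-293 MUTYH knockout cells. Cells were co-transfected with an 8OG:A-bearing GFP repair reporter plus mCherry and sorted 72 h later into GFP+ and GFP− bins, three replicates per tile. The Rosace log2 enrichment (GFP+ vs GFP−) was converted per tile to a normalized function score with synonymous variants centered at 0 and nonsense variants (codons 1-471) at -1; low-abundance variants were removed.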
As for MRKPRAAVGSGHRKQAASQEGRQKHAKNNSQAKPSACDGLARQPEEVVLQASVSSYHLFRDVAEVTAFRGSLLSWYDQEKRDLPWRRRAEDEMDLDRRAYAVWVSEVMLQQTQVATVINYYTGWMQKWPTLQDLASASLEEVNQLWAGLGYYSRGRRLQEGARKVVEELGGHMPRTAETLQQLLPGVGRYTAGAIASIAFGQATGVVDGNVARVLCRVRAIGADPSSTLVSQQLWGLAQQLVDPARPGDFNQAAMGLGATVCTPQRPLCSQCPVESLCRARQRVEQEQLLASGSLSGSPDVEECAPNTGQCHLCLPPSEPWDQTLGVVNFPRKASRKPPREESSATCVLEQPGALGAQILLVQRPNSGLLAGLWEFPSVTWEPSEQLQRKALLQELQRWAGPLPATHLRHLGEVVHTFSHIKLTYQVYGLALEGQTPVTTVPPGARWLTQEEFHTAAVSTAMKKVFRVYQGQQPGTCMGSKRSQVSSPCSRKKPRMGQQVLDNFFRSHISTDAHSLNSAAQ [E256G], the “8OG:A repair function score” value is -0.676. The result for MRKPRAAVGSGHRKQAASQEGRQKHAKNNSQAKPSACDGLARQPEEVVLQASVSSYHLFRDVAEVTAFRGSLLSWYDQEKRDLPWRRRAEDEMSLDRRAYAVWVSEVMLQQTQVATVINYYTGWMQKWPTLQDLASASLEEVNQLWAGLGYYSRGRRLQEGARKVVEELGGHMPRTAETLQQLLPGVGRYTAGAIASIAFGQATGVVDGNVARVLCRVRAIGADPSSTLVSQQLWGLAQQLVDPARPGDFNQAAMELGATVCTPQRPLCSQCPVESLCRARQRVEQEQLLASGSLSGSPDVEECAPNTGQCHLCLPPSEPWDQTLGVVNFPRKASRKPPREESSATCVLEQPGALGAQILLVQRPNSGLLAGLWEFPSVTWEPSEQLQRKALLQELQRWAGPLPATHLRHLGEVVHTFSHIKLTYQVYGLALEGQTPVTTVPPGARWLTQEEFHTAAVSTAMKKVFRVYQGQQPGTCMGSKRSQVSSPCSRKKPRMGQQVLDNFFRSHISTDAHSLNSAAQ [D94S] reads -0.0913; that for MRKPRAAVGSGHRKQAASQEGRQKHAKNNSQAKPSACDGLARQPEEVVLQASVSSYHLFRDVAEVTAFRGSLLSWYDQEKRDLPWRRRAEDEMDLDRRAYAVWVSEVMLQQTQVATVINYYTGWMQKWPTLQDLASASLEEVNQLWAGLGYYSRGRRLQEGARKVVEELGGHMPRTAETLQQLLPGVGRYTAGAIASIAFGQATGVVDGNVARVLCRVRAIGADPSSTLVSQQLWGLAQQLVDPARPGDFNQAAMELGATVCTPQRPLCSQCPVESLCRARQRVEQEQLLASGSLSGSPDVEECAPNTGQCHLCLPPSEPWDQTLGVVNFPRKASRKPPREESSATCVLEQPGALGAQILLVQRPNSGLLAGLWEFPSVTWEPSEQLQRKALLQELQRWAGPLPATHLRHLGEVVHTFSHIKLTYQVYGLALEGQTPVTTVPPGARWLTQEEFHTAAVSTAMKKVFRVYQGQQPGTCMGSKRSQVSSPCSRKKPRMGQQVLDNFFRSHASTDAHSLNSAAQ [I509A], 0.0157. As for MRKPRAAVGSGHRKQAASQEGRQKHAKNNSQAKPSACDGLARQPEEVVLQASVSSYHLFRDVAEVTAFRGSLLSWYDQEKRDLPWRRRAEDEMDLDRRAYAVWVSEVMLQQTQVATVINYYTGWMQKWPTLQDLASASLEEVNQLWAGLGYYSRGRRLQEGARKVVEELGGHMPRTAETLQQLLPGVGRYTAGAIASIAFGQATGVVDGNVARVLCRVRAIGADPSSTLVSQQLWGLAQQLVDPARPGDFNQAAMELGATVCTPQRPLCSQCPVESLCRARQRVEQEQLLASGSLSGSPDVEECAPNTGQCHLCLPPSEPWDQTLGVVNFPRKASRKPPREESSATCVLEQPGALGAQILLVQRPNSGLLAGLWEFPSVTWEPSEQLQRKALMQELQRWAGPLPATHLRHLGEVVHTFSHIKLTYQVYGLALEGQTPVTTVPPGARWLTQEEFHTAAVSTAMKKVFRVYQGQQPGTCMGSKRSQVSSPCSRKKPRMGQQVLDNFFRSHISTDAHSLNSAAQ [L393M], the “8OG:A repair function score” value amounted to 0.297.

Take MRKPRAAVGSGHRKQAASQEGRQKHAKNNSQAKPSACDGLARQPEEVVLQASVSSYHLFRDVAEVTAFRGSLLSWYDQEKRDLPWRRRAEDEMDLDRRAYAVWVSEVMLQQTQVATVINYYTGWMQKWPTLQDLASASLEEVNQLWAGLGYYSRGRRLQEGARKVVEELGGHMPRTAETLQQLLPGVGRYTAGAIASIAFGQATGVVDGNVARVLCRVRAIGADPSSTLVSQQLWGLAQQLVDPARPGDFNQAAMELGATVCTPQRPLCSQCPVESLCRARQRVEQEQLLASGSLSGSPDVEVCAPNTGQCHLCLPPSEPWDQTLGVVNFPRKASRKPPREESSATCVLEQPGALGAQILLVQRPNSGLLAGLWEFPSVTWEPSEQLQRKALLQELQRWAGPLPATHLRHLGEVVHTFSHIKLTYQVYGLALEGQTPVTTVPPGARWLTQEEFHTAAVSTAMKKVFRVYQGQQPGTCMGSKRSQVSSPCSRKKPRMGQQVLDNFFRSHISTDAHSLNSAAQ [E303V]: the “8OG:A repair function score” value is -0.0344. The value for MRVPRAAVGSGHRKQAASQEGRQKHAKNNSQAKPSACDGLARQPEEVVLQASVSSYHLFRDVAEVTAFRGSLLSWYDQEKRDLPWRRRAEDEMDLDRRAYAVWVSEVMLQQTQVATVINYYTGWMQKWPTLQDLASASLEEVNQLWAGLGYYSRGRRLQEGARKVVEELGGHMPRTAETLQQLLPGVGRYTAGAIASIAFGQATGVVDGNVARVLCRVRAIGADPSSTLVSQQLWGLAQQLVDPARPGDFNQAAMELGATVCTPQRPLCSQCPVESLCRARQRVEQEQLLASGSLSGSPDVEECAPNTGQCHLCLPPSEPWDQTLGVVNFPRKASRKPPREESSATCVLEQPGALGAQILLVQRPNSGLLAGLWEFPSVTWEPSEQLQRKALLQELQRWAGPLPATHLRHLGEVVHTFSHIKLTYQVYGLALEGQTPVTTVPPGARWLTQEEFHTAAVSTAMKKVFRVYQGQQPGTCMGSKRSQVSSPCSRKKPRMGQQVLDNFFRSHISTDAHSLNSAAQ [K3V] was -0.0444.
